Data on one variant can be found in publication PMC12393501, “Recruitment of Mre11 to recombination sites during meiosis” (Research Square, 2025).

B1: HisSUMO-tagged Mer2 [S. cerevisiae] / MBP-tagged Mre11-C49 peptide [S. cerevisiae] (parent)
chain 1: SYGLLNGRKTKTKTRPAASTKTASRRGKGRASRTPKTDILGSLLAKKRK
chain 2: MVARGRTDEISTDVSEANSEHSLMITETSSPFRSIFSHSGKVANAGALEESDKQILEWAGKLELESMELRENSDKLIKVLNENSKTLCKSLNKFNQLLEQDAATNGNVKTLIKDLASQIENQLDKVSTAMLSKGDEKKTKSDSSYRQVLVEEISRYNSKITRHVTNKQHETEKSMRCTQEMLFNVGSQLEDVHKVLLSLSKDMHSLQTRQTALEMAFREKADHAYDRPDVSLNGTTLLHDMDEAHDKQRKKSVPPPRMMVTRSMKRRRSSSPTLSTSQNHNSEDNDDASHRLKRAARTIIPWEELRPDTLESEL

The assay covers variants of B1. As to the kind of experiment: co-expression Ni-NTA pulldown, anti-MBP immunoblot quantification. The following applies: with MBP-tagged Mre11-C49 peptide [S. cerevisiae]; co-expressed in E. coli; at least seven independent samples; parent: 1; read off a plot. A general note: Immunoblotting shows a protein as a band on a membrane.
chain 2 E50A Q54A E57A K61A: the ratio to parent is 0.27.
